Measurements reported in PMC11558822, “Myc 9aaTAD activation domain binds to mediator of transcription with superior high affinity” (Molecular Medicine, 2024).

Tested on: lacZ reporter driven by the lexA operator
Test: One hybrid transactivation (β-galactosidase reporter) assay with LexA hybrids in yeast strain L40
Assay type: cell-based, Saccharomyces cerevisiae
Settings: for ß-Gal: raw β-galactosidase activity; for Reporter activation (average value in %): β-galactosidase activity of LexA hybrid, % of positive control p53 construct 6p53 set to 100%, mean ± SD, n = 3; for normalized value in %: β-galactosidase, % of 6p53 mean
[1] = replicate 1 (first sample of the construct)
[2] = replicate 2 (second sample of the construct)
[3] = replicate 3 (third sample of the construct)

Molecule	activation function (times) (one hybrid assay, presence versus absence of 9aaTAD (region 100–108) in the construct)	ß-Gal [1]	ß-Gal [2]	ß-Gal [3]	Reporter activation (average value in %) [%]	normalized value in % [1] [%]	normalized value in % [2] [%]	normalized value in % [3] [%]
c-Myc region 1-108: LexA hybrid construct of c-Myc N-terminal region 1–108 with 9aaTAD (protein, UniProt P01106 1-108, looked up, fragment, LexA fusion, LexA hybrid construct of c-Myc N-terminal region 1–108 with 9aaTAD) MDFFRVVENQQPPATMPLNVSFTNRNYDLDYDSVQPYFYCDEEENFYQQQQQSELQPPAPSEDIWKKFELLPTPPLSPSRRSGLCSPSYVAVTPFSLRGDNDGGGGSF	5	136	123	139	49	50	45	51
c-Myc region 1-103: LexA hybrid construct of c-Myc N-terminal region 1–103 without 9aaTAD (protein, UniProt P01106 1-103, looked up, fragment, LexA fusion, LexA hybrid construct of c-Myc N-terminal region 1–103 without 9aaTAD) MDFFRVVENQQPPATMPLNVSFTNRNYDLDYDSVQPYFYCDEEENFYQQQQQSELQPPAPSEDIWKKFELLPTPPLSPSRRSGLCSPSYVAVTPFSLRGDNDG		25	24	27	9	9	9	10
